B1: Hairpin Ribozyme (parent)
chain: GUCCUCUUUCACGUGCGCGUGAAAGAGAGAAGUGAACCAGAGAAACACACGUUGUGGUAUAUUACCUGGUA

Variants of: B1
Assay: self-cleavage, relative activity (ratio to wild type); higher = more cleavage; co-transcriptional

Row | Variant | self-cleavage
1 | GUCCUCUUUCGCGUGCGCGUGAAAGAGAGAAGUGAACCAGAGGAACACACGUUGUGGUAUAUUACCUGGUA | 0.128
2 | GUCCUCUUUCACGUGCGCGUGGAAGAGAGAAGUGAACCAGAGAAACGCACGUUGUGGUAUAUUACCUGGUA | 0.135
3 | GUCCUCUUUCACGUGCUCGUGAAAGAGAGAAGUGAACCAGAGAAACACACGUUGUGGUAAAUUACCUGGUA | 0.738
4 | GUCCUCUUUCACCUGCGCGUGAAAGAGAGAAGUGAACUAGAGAAACACACGUUGUGGUAUAUUACCUGGUA | 0.384
5 | GUCCUCAUGCACGUGCGCGUGAAAGAGAGAAGUGAACCAGAGAAACACACGUUGUGGUAUAUUACCUGGUA | 0.579
6 | GUCCUCUUUCACGUGCGCGUGAUAGAGAGAAGUGAACCAGAGAAACACACGUUGUGCUAUAUUACCUGGUA | 0.211
7 | GUCCUCUUUCACGUGCGCGUGAAAGAGAGAAGUGACCCAGAGAAACACACGUUGUGGUAUAUUACCCGGUA | 0.102
8 | GUCCUCUUUCACGUGCGCGUGAAAGAGAGAAGUGAACCAGAAAAACACACGUUGUGGUAUAUGACCUGGUA | 0.193
9 | GUCCUCUUUCACUUGCGCGUGAAAGAGAGAAGUGAACCAGGGAAACACACGUUGUGGUAUAUUACCUGGUA | 0.752
10 | GUCCUCUUUCACGAGCGCGUGAAAGAGAGAAGUGAACCAGAGAAACAAACGUUGUGGUAUAUUACCUGGUA | 0.179
11 | GUCCUCUUUCACGUGCUCGUGAAAGAGAGAAGUGAACCAGAGAAACACACGUUGUGGUAUAUUACCUCGUA | 0.162
12 | GUCCUCUUUCACGUGCUCGUGAAAGAGAGCAGUGAACCAGAGAAACACACGUUGUGGUAUAUUACCUGGUA | 0.176
13 | GUCCUCUUUCACGUGCGCGUGAAAGAGAGAAGUGAACCAGAGAAACGCACUUUGUGGUAUAUUACCUGGUA | 0.15
14 | GUCCUCUUUCACGUGCGCGUGAAAGUGAGAAGUGAACCAGAGAAACACACGUUGUGGUAUAUUACCUGGGA | 0.397
15 | GUCCUCUUUCACGUGCGCCUGAAAGAGAGAAGUGAACCAGAGAAACACACGUUGUGGUAUAUUAGCUGGUA | 0.25
16 | GUCCUCUUGCACGUGCGCGUGAAAGAGAGAAGUGAACCAGAGAAACACACGUUGUGGUAUAUUACGUGGUA | 0.172
17 | GUCCUCUUUCACGUGCGCGAGAUAGAGAGAAGUGAACCAGAGAAACACACGUUGUGGUAUAUUACCUGGUA | 0.785
18 | GUCCUCUUUCACGUGCGCGUGAAAGAGAGAAGUGAACCAGAGAAACACACAUUGUGGUAUGUUACCUGGUA | 0.269
19 | GUCCUCUUUCACGUGCGCGUGAAAGAGUGAAUUGAACCAGAGAAACACACGUUGUGGUAUAUUACCUGGUA | 0.258

Row | Variant | self-cleavage
20 | GUCCUCUUUCACGUGCCCGUGAAAGAGAGAAGUGAACCAGAGAAACACACGUAGUGGUAUAUUACCUGGUA | 0.936
21 | GUCCUCUUUCACGUGCGCGUGAAAGAGAGAAGUGAACCAGAGAAACAUACGUUAUGGUAUAUUACCUGGUA | 0.163
22 | GUCCUCUUUCACGUGCGCGUGAAAGAGAGAAGUGAACCAGGGAAACAGACGUUGUGGUAUAUUACCUGGUA | 0.121
23 | GUCCUCUUUCACGUGCGCUUGAAAGAGAGAAGUGAACCCGAGAAACACACGUUGUGGUAUAUUACCUGGUA | 0.502
24 | GUCCUCUUUCACGUGCGCGUGGAAGAGAGGAGUGAACCAGAGAAACACACGUUGUGGUAUAUUACCUGGUA | 0.0887
25 | GUCCUCUUUCACGUGCGCGUGAAAGAGAGAAGUGAACUAGAGAAACACACGUUGUGGUAUAUUACCUCGUA | 0.171
26 | GUCCUCUUUCACGUGCGCGUGAAAGAGUGAAGUGAACCAGAGAAACACACGUUGCGGUAUAUUACCUGGUA | 0.161
27 | GUCCUCUUUUACGUGCGCGUGAAAGAGAGAAGUGAACCAGAGCAACACACGUUGUGGUAUAUUACCUGGUA | 0.189
28 | GUCCUCUUUCACGUGCGUGUGAAAGAGAGAAGUGAACCAGAGAAACUCACGUUGUGGUAUAUUACCUGGUA | 0.178
29 | GUCCUCUUUCACGUGCGCGUGAAAGAGAGAAGUGAACCAGAGAAACAAACGUUGUGGUAUAUUACCUCGUA | 0.246
30 | GUCCUCUUUCACGUCCGCGUGAAAGAGAGAAGUGAACCAGAGAAACACACGUUGUGGUCUAUUACCUGGUA | 0.146
31 | GUCCUCUUUCACGUGCGCGUAAAAGAGAGAAGUGAACCAGAGAAACACACGUUUUGGUAUAUUACCUGGUA | 0.372
32 | GUCCCCUUUCACGUGCGCGUGAAAGAGAGAAGUGAACCAGAGAAACACUCGUUGUGGUAUAUUACCUGGUA | 0.143
33 | GUCCUCUUUCACGUGCUCGUGAAAGGGAGAAGUGAACCAGAGAAACACACGUUGUGGUAUAUUACCUGGUA | 0.812
34 | GUCCUCUUUCACGUGCGCGUGAAAGAGAGUAGUGAACCAGAGAAACACACGUUGUGGUAUAUUACCAGGUA | 0.0771
35 | GUCCUCUUUCACGUGCGCGUGAAAGAGAGAAUUGAACCAGAGAAACACACGUAGUGGUAUAUUACCUGGUA | 0.126
36 | GUCCGCUCUCACGUGCGCGUGAAAGAGAGAAGUGAACCAGAGAAACACACGUUGUGGUAUAUUACCUGGUA | 0.099
37 | GUCCUCUUUCACGUGGGCGUGAAAGAGAGAAGUGAACCAGAUAAACACACGUUGUGGUAUAUUACCUGGUA | 0.247
38 | GUCCUCUUUCACGUGCGCGUGAAUGAGAGAAGUGAACCAGAGAAAUACACGUUGUGGUAUAUUACCUGGUA | 0.264

From the RNAGym collection of RNA variant scans (doi:10.7554/elife.80360)
